B1: PT1B635 (antibody, human IgG1, kappa, V domains shown)
VH: QVQLVQSGAEVKKPGASVKVSCKASGYTFTSYWITWVRQAPGQGLEWMGDIHPGRGSTKYAQKLQGRVTLTTDTSTSTAYMELRSLRSDDTAVYYCARRWGFDYWGQGTLVTVSS
VL: DIVITQTPLSLPVTPGEPASISCRSSKSLLYKDGKTYLNWFLQKPGQSPQLLIYLMSTRASGVPDRFSGSGSGTDFTLKISRVEAEDVGVYYCQQLVDYPLTFGQGTKLEIKR
notes: also called humanized PT/66 variant
B2: PT1B901 (antibody, human IgG1, kappa, V domains shown)
VH: QVQLVQSGAEVKKPGASVKVSCKASGYTFTSYWITWVRQAPGQGLEWMGDIHPGRGSTKYAQKLQGRVTLTTDTSTSTAYMELRSLRSDDTAVYYCARRWGFDYWGQGTLVTVSS
VL: DIVITQTPLSLPVTPGEPASISCRSSKSLLYKDLKTYLNWFLQKPGQSPQLLIYLMSTRASGVPDRFSGSGSGTDFTLKISRVEAEDVGVYYCQQLVDYPLTFGQGTKLEIKR
notes: also called humanized PT/66 variant with G44L in LCDR1
B3: PT1B1183 (antibody, human IgG1, kappa, V domains shown)
VH: QVQLVQSGAEVKKPGASVKVSCKASGYTFTSYWITWVRQRPGQGLEWMGDIHPGRGSTKYAQKLQGRVTMTTDTSTSTAYMELRSLRSDDTAVYYCARRWGFDYWGQGTLVTVSS
VL: DIVMTQTPLSSPVTLGQPASISCRSSKSLLYKDGKTYLNWFQQRPGQSPRLLIYLMSTRASGVPDRFSGSGAGTDFTLKISRVEAEDVGVYYCQQLVDYPLTFGQGTKLEIKR
notes: also called humanized antibody derived from PT1B1153 by modifying the 2nd light chain framework region
B4: PT/66 anti-PHF-Tau monoclonal Ab (mouse parent) (antibody, V domains shown)
VH: QVQLQQPGAELVKPGASVKMSCKASGYTFTSYWITWVKQRPGQGLEWIGDIHPGRGSTKSNEKFKSKATLTVDTSSSTAYMQFSSLTSEDSAVYYCARRWGFDYWGQGTTLTVSS
VL: DIVITQDELSNPVTSGESVSISCRSSKSLLYKDGKTYLNWFLQRPGQSPQLLIYLMSTRASGVSDRFSGSGSGTDFTLEISRVKAEDVGVYYCQQLVDYPLTFGAGTKLELK
notes: Murine mAb
B5: PT1B545 (antibody, mouse IgG2a, kappa, V domains shown)
VH: QVQLQQPGAELVKPGASVKMSCKASGYTFTSYWITWVKQRPGQGLEWIGDIHPGRGSTKSNEKFKSKATLTVDTSSSTAYMQFSSLTSEDSAVYYCARRWGFDYWGQGTTLTVSS
VL: DIVITQDELSNPVTSGESVSISCRSSKSLLYKDGKTYLNWFLQRPGQSPQLLIYLMSTRASGVSDRFSGSGSGTDFTLEISRVKAEDVGVYYCQQLVDYPLTFGAGTKLELKR
notes: Recombinant version of the parent mAb PT/66, with mouse constant regions; also called rec. parent; recombinant parent of PT/66

Legend:
[1] = target: T1, human full-length recombinant tau (2N4R) (human, UniProt P10636 2-758); assay: SPR, Biacore T200, 25 C, mAb captured by anti-Fc on CM4 chip, tau in solution, 1:1 Langmuir fit
T1 construct: also called full length tau protein; full-length recombinant Tau protein
Description: (§1) The interactions of anti-tau antibodies with human full-length recombinant tau (2N4R) were studied by SPR using a Biacore T200 at 25° C. with HBS pH 7.4 buffer, supplemented with 3 mM EDTA, and 0.05% Tween 20. Briefly, a biosensor surface was prepared by coupling a mixture of anti-mouse/anti-human IgG Fcγ-fragment specific antibody to the surface of a CM4 sensor chip using manufacturer's instructions for amine-coupling chemistry (>4000 response units (RU)). The coupling buffer was 10 mM sodium acetate, pH 4.5. The anti-tau antibodies were diluted in the running buffer and injected to obtain enough capture to enable detection of antigen binding. Capture of anti-tau mAbs was followed by injection of recombinantly expressed tau solutions ranging from 0.12 nM to 75 nM at 5-fold dilutions. The association and dissociation were monitored for 3 minutes and 60 min respectively at 50 μL/min flow rate. Regeneration of the sensor surface was performed with 0.85% H₃PO₄. The binding sensorgrams were fitted using to a 1:1 Langmuir binding model to obtain on-rates, off-rates, and affinities. PT1B635 and PT1B901 bound to full length tau protein with similar tight affinities as the parent mAbs, PT/66 or PT1B545 (FIG. 3 and Table 2 below).

[2] = target: T1, human full-length recombinant tau (2N4R); assay: SPR, Biacore T200, 25 C, mAb captured by anti-Fc on CM4 chip, tau in solution, 1:1 Langmuir fit; koff based on 1-hour limit, 5% dissociation
Description: as §1

[3] = target: T1, human full-length recombinant tau (2N4R); assay: SPR, mAb captured, tau in solution, single-cycle kinetics, 120 min dissociation, 1:1 Langmuir fit
[4] = target: T1, human full-length recombinant tau (2N4R); assay: SPR, mAb captured, tau in solution, single-cycle kinetics, 1:1 Langmuir fit; koff based on 2-hour limit, 5% dissociation

T1 sequence (P10636 other isoform, or with tags, fused parts or gaps limits assumed): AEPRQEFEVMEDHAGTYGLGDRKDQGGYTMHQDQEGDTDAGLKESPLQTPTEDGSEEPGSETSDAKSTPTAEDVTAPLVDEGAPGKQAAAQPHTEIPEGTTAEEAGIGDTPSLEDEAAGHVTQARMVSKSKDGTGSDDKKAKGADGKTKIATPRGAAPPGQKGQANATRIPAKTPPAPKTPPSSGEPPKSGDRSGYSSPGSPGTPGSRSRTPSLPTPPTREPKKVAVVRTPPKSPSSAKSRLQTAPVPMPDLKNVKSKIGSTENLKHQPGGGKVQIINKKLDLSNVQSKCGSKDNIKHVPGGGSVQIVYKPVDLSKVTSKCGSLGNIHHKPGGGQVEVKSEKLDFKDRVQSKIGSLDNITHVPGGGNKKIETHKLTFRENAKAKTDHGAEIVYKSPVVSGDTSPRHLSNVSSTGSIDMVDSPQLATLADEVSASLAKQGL

Binder	Kd [1] [nM]	kon [1] [M⁻¹ s⁻¹]	koff [2] [s⁻¹]	koff [1] [s⁻¹]	Kd [3] [nM]	kon [3] [M⁻¹ s⁻¹]	koff [4] [s⁻¹]
B1	< 0.041	370000	< 1.42e-05				
B2	0.059	300000		2e-05			
B3					< 0.00618	1.99e+06	< 1.19e-05
B4	< 0.031	450000	< 1.42e-05				
B5	< 0.028	510000	< 1.42e-05				

From patent US20240166731A1 (Janssen / Centocor, published 2024)
